Target: T1, integrin heterodimer αVβ6 (ITGAV-B6) (human, UniProt P06756 31-1048; P18564 22-788)
T1 construct: whole, on cells; Species is read from the 'h' prefix of hITGAV and hITGB6; also called ITGAV-B6 heterodimers; hITGAV and hITGB6
Experiment: concluding sentence, resting on the infection and luciferase assay in 293_ITGAV-B6 cells; no direct binding assay

T1 sequence (P06756 31-1048, chain 1 of 2): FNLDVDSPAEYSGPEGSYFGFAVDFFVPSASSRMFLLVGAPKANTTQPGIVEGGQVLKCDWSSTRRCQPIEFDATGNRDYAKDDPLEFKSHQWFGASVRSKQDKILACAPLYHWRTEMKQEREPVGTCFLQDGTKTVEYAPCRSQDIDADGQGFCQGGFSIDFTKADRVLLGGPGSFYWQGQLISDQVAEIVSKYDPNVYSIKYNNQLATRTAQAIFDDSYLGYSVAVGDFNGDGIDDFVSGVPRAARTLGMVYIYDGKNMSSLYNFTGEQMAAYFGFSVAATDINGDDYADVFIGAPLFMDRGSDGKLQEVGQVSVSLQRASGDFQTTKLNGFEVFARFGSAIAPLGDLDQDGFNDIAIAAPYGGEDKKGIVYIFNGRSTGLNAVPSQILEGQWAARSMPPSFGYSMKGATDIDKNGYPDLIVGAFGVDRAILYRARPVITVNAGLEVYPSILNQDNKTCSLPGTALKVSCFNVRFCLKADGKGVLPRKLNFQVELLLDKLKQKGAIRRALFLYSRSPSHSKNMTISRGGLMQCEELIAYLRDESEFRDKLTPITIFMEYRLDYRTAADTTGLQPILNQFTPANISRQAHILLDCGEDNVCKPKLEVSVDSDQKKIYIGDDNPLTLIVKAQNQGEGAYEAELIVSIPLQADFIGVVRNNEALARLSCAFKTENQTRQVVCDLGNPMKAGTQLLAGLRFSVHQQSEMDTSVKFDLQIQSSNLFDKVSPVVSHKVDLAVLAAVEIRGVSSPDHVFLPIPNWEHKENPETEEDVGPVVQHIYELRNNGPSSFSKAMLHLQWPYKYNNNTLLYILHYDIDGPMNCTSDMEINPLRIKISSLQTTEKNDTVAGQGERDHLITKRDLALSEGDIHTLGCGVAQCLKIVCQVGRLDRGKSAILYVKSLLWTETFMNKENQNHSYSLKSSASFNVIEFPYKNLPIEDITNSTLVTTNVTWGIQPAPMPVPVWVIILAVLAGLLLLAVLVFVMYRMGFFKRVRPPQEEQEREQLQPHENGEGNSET
T1 sequence (P18564 22-788, chain 2 of 2): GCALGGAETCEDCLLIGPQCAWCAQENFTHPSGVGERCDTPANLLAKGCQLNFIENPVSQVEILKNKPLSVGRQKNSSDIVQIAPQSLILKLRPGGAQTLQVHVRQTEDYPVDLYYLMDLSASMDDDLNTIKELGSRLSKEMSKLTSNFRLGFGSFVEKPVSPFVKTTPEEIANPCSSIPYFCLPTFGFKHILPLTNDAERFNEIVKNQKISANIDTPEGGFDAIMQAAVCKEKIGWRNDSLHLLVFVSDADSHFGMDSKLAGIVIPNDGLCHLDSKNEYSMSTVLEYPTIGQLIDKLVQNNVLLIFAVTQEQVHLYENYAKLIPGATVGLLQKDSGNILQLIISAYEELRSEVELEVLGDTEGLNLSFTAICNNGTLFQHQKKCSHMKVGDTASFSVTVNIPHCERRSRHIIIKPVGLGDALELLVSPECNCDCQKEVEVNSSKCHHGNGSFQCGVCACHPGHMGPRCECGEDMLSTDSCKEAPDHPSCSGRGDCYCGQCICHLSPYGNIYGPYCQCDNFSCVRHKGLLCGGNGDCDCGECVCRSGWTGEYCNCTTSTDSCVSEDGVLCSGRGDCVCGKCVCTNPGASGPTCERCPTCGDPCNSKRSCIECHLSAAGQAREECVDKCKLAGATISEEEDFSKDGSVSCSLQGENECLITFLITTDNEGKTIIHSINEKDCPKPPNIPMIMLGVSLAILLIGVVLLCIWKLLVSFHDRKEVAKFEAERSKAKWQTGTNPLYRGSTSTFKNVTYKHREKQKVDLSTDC

Binder	binding result
AAV_Cap9rh74_VR4-4um9.Nat (other, Tested as a whole recombinant AAV vector particle packaging CMV-GFP/Luc; also called Cap9rh74_VR4-4um9(LICA.01)) MAADGYLPDWLEDNLSEGIREWWALKPGAPQPKANQQHQDNARGLVLPGYKYLGPGNGLDKGEPVNAADAAALEHDKAYDQQLKAGDNPYLKYNHADAEFQERLKEDTSFGGNLGRAVFQAKKRLLEPLGLVEEAAKTAPGKKRPVEQSPQEPDSSAGIGKSGAQPAKKRLNFGQTGDTESVPDPQPIGEPPAAPSGVGSLTMASGGGAPVADNNEGADGVGSSSGNWHCDSQWLGDRVITTSTRTWALPTYNNHLYKQISNSTSGGSSNDNAYFGYSTPWGYFDFNRFHCHFSPRDWQRLINNNWGFRPKRLNFKLFNIQVKEVTDNNGVKTIANNLTSTVQVFTDSDYQLPYVLGSAHEGCLPPFPADVFMIPQYGYLTLNDGSQAVGRSSFYCLEYFPSQMLRTGNNFQFSYEFENVPFHSSYAHSQSLDRLMNPLIDQYLYYLSRTQSTDGRGDLGRLGPQQLLFSQAGPNNMSAQAKNWLPGPCYRQQRVSTTLSQNNNSNFAWTGATKYHLNGRDSLVNPGVAMATHKDDEERFFPSSGVLMFGKQGAGKDNVDYSSVMLTSEEEIKTTNPVATEQYGVVADNLQQQNAAPIVGAVNSQGALPGMVWQNRDVYLQGPIWAKIPHTDGNFHPSPLMGGFGMKHPPPQILIKNTPVPADPPTAFNKDKLNSFITQYSTGQVSVEIEWELQKENSKRWNPEIQYTSNYYKSNNVEFAVNTEGVYSEPRPIGTRYLTRNL	binds
AAV_Cap9rh74_VR4-5ffo.Nat (other, Tested as a whole recombinant AAV vector particle packaging CMV-GFP/Luc) MAADGYLPDWLEDNLSEGIREWWALKPGAPQPKANQQHQDNARGLVLPGYKYLGPGNGLDKGEPVNAADAAALEHDKAYDQQLKAGDNPYLKYNHADAEFQERLKEDTSFGGNLGRAVFQAKKRLLEPLGLVEEAAKTAPGKKRPVEQSPQEPDSSAGIGKSGAQPAKKRLNFGQTGDTESVPDPQPIGEPPAAPSGVGSLTMASGGGAPVADNNEGADGVGSSSGNWHCDSQWLGDRVITTSTRTWALPTYNNHLYKQISNSTSGGSSNDNAYFGYSTPWGYFDFNRFHCHFSPRDWQRLINNNWGFRPKRLNFKLFNIQVKEVTDNNGVKTIANNLTSTVQVFTDSDYQLPYVLGSAHEGCLPPFPADVFMIPQYGYLTLNDGSQAVGRSSFYCLEYFPSQMLRTGNNFQFSYEFENVPFHSSYAHSQSLDRLMNPLIDQYLYYLSRTQSEPRRGDLATIGSQQLLFSQAGPNNMSAQAKNWLPGPCYRQQRVSTTLSQNNNSNFAWTGATKYHLNGRDSLVNPGVAMATHKDDEERFFPSSGVLMFGKQGAGKDNVDYSSVMLTSEEEIKTTNPVATEQYGVVADNLQQQNAAPIVGAVNSQGALPGMVWQNRDVYLQGPIWAKIPHTDGNFHPSPLMGGFGMKHPPPQILIKNTPVPADPPTAFNKDKLNSFITQYSTGQVSVEIEWELQKENSKRWNPEIQYTSNYYKSNNVEFAVNTEGVYSEPRPIGTRYLTRNL	binds

From patent EP4536686B1 (GENETHON, dated 2025)
